Measured values published in patent publication US20240279280A1 (CAMBRIDGE ENTERPRISE, published 2024).
Where “and” joins values, the source holds several entries; their conditions need not be identical. Equal entries are not always repeated. Positions of bridges follow the written chain, without caps; N, C: chain ends. Non-standard residues stand in square brackets, D forms with d. No end group written: not given here. *: point of attachment. Phe(3,4,5-F3) = N[C@@H](Cc1cc(F)c(F)c(F)c1)C(=O)O; Myristoyl = CCCCCCCCCCCCCC(=O)*; pGlu = O=C1CC[C@@H](C(=O)O)N1; Nle = CCCC[C@H](N)C(=O)O; Abu = CC[C@H](N)C(=O)O; Aib = CC(C)(N)C(=O)O

T1: human apelin receptor (human, UniProt P35414 1-380)
T1 sequence (looked up): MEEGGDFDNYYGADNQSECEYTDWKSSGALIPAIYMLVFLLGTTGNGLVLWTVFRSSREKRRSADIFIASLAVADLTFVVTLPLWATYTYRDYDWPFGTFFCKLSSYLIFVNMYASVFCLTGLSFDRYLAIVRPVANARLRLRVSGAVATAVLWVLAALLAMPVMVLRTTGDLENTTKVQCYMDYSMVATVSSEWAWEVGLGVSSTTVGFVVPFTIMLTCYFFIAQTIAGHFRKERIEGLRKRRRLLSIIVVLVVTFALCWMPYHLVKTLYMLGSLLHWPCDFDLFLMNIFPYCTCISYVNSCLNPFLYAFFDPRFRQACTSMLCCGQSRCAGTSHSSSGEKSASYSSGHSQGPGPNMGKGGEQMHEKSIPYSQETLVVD

B1: MM297 (peptide)
peptide: [pGlu]RPR[Nle]CKHCR[Aib]R[Nle][Phe(3,4,5-F3)]
modifications: cysteine pairing not given here
B2: MM315 (peptide)
peptide: Myristoyl-ARPR[Nle][Abu]KH[Abu]R[Aib]R[Nle][Phe(3,4,5-F3)]
B3: MM313 (peptide)
peptide: Ac-ARPR[Nle]CKH[Abu]R[Aib]R[Nle][Phe(3,4,5-F3)]
B4: MM299 (peptide)
peptide: CRPR[Nle]CKH[Abu]R[Aib]R[Nle][Phe(3,4,5-F3)]
modifications: cysteine pairing not given here
B5: MM316 (peptide)
peptide: Myristoyl-ARPR[Nle][Abu]HK[Abu]R[Aib]R[Nle][Phe(3,4,5-F3)]
B6: MM314 (peptide)
peptide: ARPR[Nle][Abu]KH[Abu]R[Aib]R[Nle][Phe(3,4,5-F3)]
B7: MM312 (peptide)
peptide: ARPR[Nle]CKH[Abu]R[Aib]R[Nle][Phe(3,4,5-F3)]
B8: MM298 (peptide)
peptide: CRPR[Nle][Abu]KHCR[Aib]R[Nle][Phe(3,4,5-F3)]
modifications: cysteine pairing not given here
B9: MM54 (peptide)
peptide: CRPRLCKHCRPRLC
modifications: disulfide 1-6, 9-14
notes: Previously published macrocyclic comparator; also called cyclo(1-6)CRPRLC-KH-cyclo(9-14)CRPRLC
B10: MM108 (peptide)
peptide: CRPRLCKHCRPRLC
notes: Linear peptide
B11: MM107 (peptide)
peptide: CRPRLCHKCRPRLC
B12: MM193 (peptide)
peptide: CRPR[Nle]CKHCR[Aib]R[Nle][Phe(3,4,5-F3)]
modifications: cysteine pairing not given here
notes: also called CRPR-Nle-CKHCR-Aib-R-Nle-(3,4,5-trifluoro-)F
B13: MM262 (peptide)
peptide: QRPR[Nle]CKHCR[Aib]R[Nle][Phe(3,4,5-F3)]
modifications: cysteine pairing not given here
notes: also called QRPR-Nle-CKHCR-Aib-R-Nle-(3,4,5-trifluoro-)F
B14: MM302 (peptide)
peptide: CRPR[Nle]CHKCR[Aib]R[Nle][Phe(3,4,5-F3)]
modifications: cysteine pairing not given here
notes: also called CRPR-Nle-CHKCR-Aib-R-Nle-(3,4,5-trifluoro-)F
B15: MM300 (peptide)
peptide: Myristoyl-CRPR[Nle]CKHCR[Aib]R[Nle][Phe(3,4,5-F3)]
modifications: cysteine pairing not given here
notes: also called Myristoyl-CRPR-Nle-CKHCR-Aib-R-Nle-(3,4,5-trifluoro-)F

These binders were tested against T1, human apelin receptor (assay: cell-based or functional assay).

Binder	DRx cAMP pA2	DRx β-Arrestin pA2
B1	6.08 and 6.14	7.38
B2	8.52 and 8.11	
B3	6.66 and 6.92	
B4	7.32 and 6.95	8.1 and 8.53
B5	7.41 and 7.88	
B6	6.43 and 6.71	
B7	6.6 and 6.84	
B8	7.59 and 7.12	7.76

Target: T1, human apelin receptor
Test: cell-based or functional assay
Remark: another data set of the same source

Binder	DRx cAMP assay EC50 (weak agonist activity)
B9	1400 nM

Target: T1, human apelin receptor
Test: cell-based or functional assay
Remark: another data set of the same source

Binder	DRx β-Arrestin pA2	DRx cAMP pD2
B10	7.41	
B9		5.86
B11	7.24	
B12	7.68	
B13	7.53	

What follows are binders tested against T1, human apelin receptor (assay: binding to human left ventricle).

Binder	Kd
B9	358 nM

These binders were tested against T1, human apelin receptor (assay: radioligand competition vs [Glp65,Nle75,Tyr77][125I]apelin-13 on human left ventricle homogenate).
Protocol: Equilibrium was broken by centrifugation (20,000 g for 10 min, 4° C.). Pellets were washed with Tris-HCl buffer (50 mmol/L, pH 7.4, 4° C.), re-centrifuged and bound radioactivity in the final pellets counted. Data from triplicate experiments were analysed using the iterative non-linear curve fitting programs EBDA and LIGAND (KELL package, Biosoft, UK) or GraphPad Prism 6 to derive values of affinity (expressed as either the equilibrium dissociation constant KD or the negative log₁₀ of the dissociation constant, pKᵢ±sem) and receptor density (BMAX±sem in fmoles bound per mg protein).

Binder	HLV pKi
B12	6.12

The binders below were run against T1, human apelin receptor (assay: radioligand competition vs [Glp65,Nle75,Tyr77][125I]apelin-13 on CHO-K1 cells expressing human apelin receptor (Cerep); Cheng-Prusoff).
Protocol: Binding assays were performed by Cerep (Celle L'Evescault, France) on Chinese Hamster Ovary (CHO-K1) cells expressing the human apelin receptor. […] The results were expressed as a percent of control specific binding ((measured specific binding/control specific binding)×100) and as a percent inhibition of control specific binding (100−((measured specific binding/control specific binding)×100)) obtained in the presence of the test compounds. […] Results showing an inhibition between 20% and 50% were indicative of weak to moderate effects.

Binder	Ki
B14	17 nM
B1	55 nM
B10	140 nM
B2	3 nM and 2.7 nM
B3	53 nM and 47 nM
B9	82 nM
B4	6.1 nM
B15	13 nM
B5	3 nM and 2.8 nM
B6	10 nM and 8.9 nM
B7	190 nM and 160 nM
B8	16 nM
B11	180 nM
B12	19 nM
B13	34 nM
